Measured values taken from the supplement of paper PMC9233669.
Fewer inactive variants are shown than the library holds.

What was measured:
biotinyl-Phe-oxazolone = assay: self-aminoacylation, catalytic enhancement (BFO) (fold over background); higher = more active; k-Seq, kA / k0A0; sequences stand for … in GGGAAUGGAUCCACAUCUACGAAUUC…UUCACUGCAGACUUGACGAAGCUG
Method in brief: (§1)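 Mutagenized RNA pools with a 21-nt variable region (0.43 μM) reacted with each biotinyl-aminoacyl-oxazolone at 2–1250 μM. Reactions ran in 50 μL HEPES/NaCl/KCl/MgCl2/CaCl2 buffer with 5% acetonitrile, pH 6.9–7.0, for 90 minutes at room temperature. Streptavidin-captured RNA was quantified by triplicate qPCR and Illumina sequencing, and per-sequence fraction reacted was fit to a pseudo-first-order model with 1000 bootstraps. Catalytic enhancement is median kA divided by the uncatalyzed rate, the low-activity peak of a bimodal Gaussian fit.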

biotinyl-Ile-oxazolone = assay: self-aminoacylation, catalytic enhancement (BIO) (fold over background); higher = more active; k-Seq, kA / k0A0; sequences stand for … in GGGAAUGGAUCCACAUCUACGAAUUC…UUCACUGCAGACUUGACGAAGCUG
Method in brief: as §1

biotinyl-Met-oxazolone = assay: self-aminoacylation, catalytic enhancement (BMO) (fold over background); higher = more active; k-Seq, kA / k0A0; sequences stand for … in GGGAAUGGAUCCACAUCUACGAAUUC…UUCACUGCAGACUUGACGAAGCUG
Method in brief: as §1

biotinyl-Val-oxazolone = assay: self-aminoacylation, catalytic enhancement (BVO) (fold over background); higher = more active; k-Seq, kA / k0A0; sequences stand for … in GGGAAUGGAUCCACAUCUACGAAUUC…UUCACUGCAGACUUGACGAAGCUG
Method in brief: as §1

biotinyl-Leu-oxazolone = assay: self-aminoacylation, catalytic enhancement (BLO) (fold over background); higher = more active; k-Seq, kA / k0A0; sequences stand for … in GGGAAUGGAUCCACAUCUACGAAUUC…UUCACUGCAGACUUGACGAAGCUG
Method in brief: as §1

biotinyl-Trp-oxazolone = assay: self-aminoacylation, catalytic enhancement (BWO) (fold over background); higher = more active; k-Seq, kA / k0A0; sequences stand for … in GGGAAUGGAUCCACAUCUACGAAUUC…UUCACUGCAGACUUGACGAAGCUG
Method in brief: as §1

Sequence	self-aminoacylation (biotinyl-Phe-oxazolone)	self-aminoacylation (biotinyl-Ile-oxazolone)	self-aminoacylation (biotinyl-Met-oxazolone)	self-aminoacylation (biotinyl-Val-oxazolone)	self-aminoacylation (biotinyl-Leu-oxazolone)	self-aminoacylation (biotinyl-Trp-oxazolone)
CCACACUUCAAGCAGUCAGUC [Fam1B.1 aminoacylation ribozyme variant]	0.947	0.788	0.562	0.91	0.717	0.54
CCACACUUCAAGCAUCCGGUC [Fam1B.1 aminoacylation ribozyme variant]	0.999	1.03	0.859	1.38	0.817	1.11
CCACACUUCAAGCAUUCGGGC [Fam1B.1 aminoacylation ribozyme variant]	1.51	2.54	2.37	2.83	1.79	2.99
CCACACUUCAAGCAUUCGGUC [Fam1B.1 aminoacylation ribozyme variant]	0.969	1.12	0.887	1.27	0.899	0.943
CCACACUUCAAGCAUUCUGUC [Fam1B.1 aminoacylation ribozyme variant]	0.618	0.414	0.32	0.497	0.284	0.372
CCACACUUCAAGCCACCGGUC [Fam1B.1 aminoacylation ribozyme variant]	1.28	1.64	1.43	2.12	1.47	1.23
CCACACUUCAAGCGAUCGGCC [Fam1B.1 aminoacylation ribozyme variant]	20.2	3.31	4.7	5.25	2.6	7.01
CCACACUUCAAGCGAUCGGUG [Fam1B.1 aminoacylation ribozyme variant]	41.8	4.19	6.68	4.66	8.84	6.74
CCACACUUCAAGCGCUCGGUC [Fam1B.1 aminoacylation ribozyme variant]	3.37	1.04	0.81	1.09	1.21	1.41
CCACACUUCAAGCUAGCGGUC [Fam1B.1 aminoacylation ribozyme variant]	0.856	0.921	0.714	0.911	0.984	0.75
CCACACUUCAAGCUAUCCGUC [Fam1B.1 aminoacylation ribozyme variant]	0.797	1.04	0.761	1.27	0.736	1.13
CCACACUUCAAGCUAUCGUUC [Fam1B.1 aminoacylation ribozyme variant]	0.96	0.677	0.542	0.908	0.574	0.521
CCACACUUCAAGCUAUCUGUC [Fam1B.1 aminoacylation ribozyme variant]	0.636	0.468	0.284	0.612	0.362	0.371
CCACACUUCAAGGAACCGGUC [Fam1B.1 aminoacylation ribozyme variant]	1.2	1.04	1.04	0.945	0.984	0.809
CCACACUUCAAGGAAUCAGUC [Fam1B.1 aminoacylation ribozyme variant]	2.49	0.668	0.614	0.757	0.62	1.08
CCACACUUCAAGGAAUCCGUC [Fam1B.1 aminoacylation ribozyme variant]	0.963	1.24	1.65	1.14	1.08	1.07
CCACACUUCAAGGAUUCGGUC [Fam1B.1 aminoacylation ribozyme variant]	0.958	1.85	1.83	2.02	2.02	1.96
CCACACUUCAAGGCAUCGGUC [Fam1B.1 aminoacylation ribozyme variant]	1.18	1.03	1.02	1.32	1.18	1.16
CCACACUUCAAGUAAUCAGUC [Fam1B.1 aminoacylation ribozyme variant]	4.86	0.686	0.586	0.723	0.635	1.72
CCACACUUCAAGUAAUCGGAC [Fam1B.1 aminoacylation ribozyme variant]	0.783	0.743	0.826	0.907	0.696	1.05
CCACACUUCAAUCACUCGGUC [Fam1B.1 aminoacylation ribozyme variant]	0.947	0.936	0.763	0.984	0.773	0.753
CCACACUUCACACAAUCGGUC [Fam1B.1 aminoacylation ribozyme variant]	0.775	0.878	0.601	1.02	0.687	0.837
CCACACUUCACGCAAUCGGGC [Fam1B.1 aminoacylation ribozyme variant]	20	2.42	2.18	3.33	2.39	2.1
CCACACUUCACGCAAUCGGUG [Fam1B.1 aminoacylation ribozyme variant]	52.2	3.09	5.89	3.5	7.74	6.24
CCACACUUCACGCAAUCGUUC [Fam1B.1 aminoacylation ribozyme variant]	0.716	0.725	0.717	0.905	0.794	0.939
CCACACUUCACGCAGUCGGUC [Fam1B.1 aminoacylation ribozyme variant]	0.859	1.13	0.94	1.47	1.31	0.719
